B1: unnamed (parent)
chain: MFGLGHNSKEISMSHIGTKFILAEKFTFDPLSNTLIDKEDSEEIIRLGSNESRILWLLAQRPNEVISRNDLHDFVWREQGFEVDDSSLTQAISTLRKMLKDSTKSPQYVKTVPKRGYQLIARVETVEEEMARESEAAHDISQPESVNEYAESSSVPSSATVVNTPQPANVVTNKSAPNLGNRLLILIAVLLPLAVLLLTNPSQTSFKPLTVVDGVAVNMPNNHPDLSNWLPSIELCVKKYNEKHTGGLKPIEVIATGGQNNQLTLNYIHSPEVSGENITLRIVANPNDAIKVCE

Variants of: B1
Conditions: with partner chain of the complex shown; read off a plot

| Variant | response [%] |
| --- | --- |
| MFGLGHNSKEISMSHIGTKFILAEKFTFDPLSNTLIDKEDSEEIIRLGSNESRILWLLAQRPNEVISRNDLHDFVRREQGFEVDDSSLTQAISTLRKMLKDSTKSPQYVKTVPKRGYQLIARVETVEEEMARESEAAHDISQPESVNEYAESSSVPSSATVVNTPQPANVVTNKSAPNLGNRLLILIAVLLPLAVLLLTNPSQTSFKPLTVVDGVAVNMPNNHPDLSNWLPSIELCVKKYNEKHTGGLKPIEVIATGGQNNQLTLNYIHSPEVSGENITLRIVANPNDAIKVSE [chain 1 C293S W76R] | 5 |
| MFGLGHNSKEISMSHIGTKFILAEKFTFDPLSNTLIDKEDSEEIIRLGSNESRILWLLAQRPNEVISRNDLHDFVWREQGFEVDDSSLTQAISTLRKMLKDSTKSPQYVKTVPKRGYQLIARVETVEEEMARESEAAHDISQPESVNEYAESSSVPSSATVVNTPQPANVVTNKSAPNLGNRLLILIAVLLPLAVLLLTNPSQTSFKPLTVVDGVAVNMPNNHPDLSNWLPSIELCVKKYNEKHTGGLKPIEVIATGGQNNQLTLNYIHSPEVSGENITLRIVANPNDAIKVSE [chain 1 C293S] | 45 |
